Consider two proteins from patent US6699969.

The target in the data set is taxol-stabilized microtubules prepared from bovine brain tubulin, P81947.
Sequence of taxol-stabilized microtubules prepared from bovine brain tubulin, P81947 (P81947 whole entry, chain 1 of 2): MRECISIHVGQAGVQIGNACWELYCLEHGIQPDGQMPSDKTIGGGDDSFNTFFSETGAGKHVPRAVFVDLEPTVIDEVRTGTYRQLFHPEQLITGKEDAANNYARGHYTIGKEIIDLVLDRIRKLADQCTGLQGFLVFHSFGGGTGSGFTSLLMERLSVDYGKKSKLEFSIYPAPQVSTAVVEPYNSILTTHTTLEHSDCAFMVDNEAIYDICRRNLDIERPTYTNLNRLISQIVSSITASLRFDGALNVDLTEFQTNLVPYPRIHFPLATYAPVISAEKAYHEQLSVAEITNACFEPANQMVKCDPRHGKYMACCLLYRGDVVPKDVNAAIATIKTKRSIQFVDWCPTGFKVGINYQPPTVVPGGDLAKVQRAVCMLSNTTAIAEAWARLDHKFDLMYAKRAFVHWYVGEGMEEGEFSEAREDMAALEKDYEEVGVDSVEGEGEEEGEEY
Sequence of taxol-stabilized microtubules prepared from bovine brain tubulin, P81947 (chain, as listed by the source, chain 2 of 2): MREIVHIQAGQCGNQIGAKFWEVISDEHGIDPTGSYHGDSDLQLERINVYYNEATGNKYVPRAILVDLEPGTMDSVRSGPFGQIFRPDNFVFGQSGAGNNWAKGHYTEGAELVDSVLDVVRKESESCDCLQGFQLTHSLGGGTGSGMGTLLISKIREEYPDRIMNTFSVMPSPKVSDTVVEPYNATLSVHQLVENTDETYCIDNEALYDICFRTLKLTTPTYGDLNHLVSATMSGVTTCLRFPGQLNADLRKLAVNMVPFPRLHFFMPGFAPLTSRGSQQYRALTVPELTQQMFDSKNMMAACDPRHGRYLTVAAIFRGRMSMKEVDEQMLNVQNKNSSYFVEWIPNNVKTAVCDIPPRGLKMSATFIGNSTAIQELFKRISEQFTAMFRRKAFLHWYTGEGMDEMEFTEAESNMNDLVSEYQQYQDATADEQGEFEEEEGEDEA

B1: baculovirus co-expressed S. purpuratus katanin p60/p80 heterodimer, each subunit with N-terminal His(6) tag (protein)
chain 1: MSVDEICENTKMGREYALLGNYETSLVYYQGVLQQIQKLLTSVHEPQRKHQWQTIRQELSQEYEHVKNITKTLNGFKSEPAAPEPAPNHGRAAPFSHHQHAAKPAAAEPARDPDVWPPPTPVDHRPSPPYQRAARKDPPRRSEPSKPANRAPGNDRGGRGPSDRRGDARSGGGGRGGARGSDKDKNRGGKSDKDKKAPSGEEGDEKKFDPAGYDKDLVENLERDIVQRNPNVHWADIAGLTEAKRLLEEAVVLPLWMPDYFKGIRRPWKGVLMVGPPGTGKTMLAKAVATECGTTFFNVSSASLTSKYHGESEKLVRLLFEMARFYAPSTIFIDEIDSICSKRGTGSEHEASRRVKSELLIQMDGVSGPSAGEESSKMVMVLAATNFPWDIDEALRRRLEKRIYIPLPEIDGREQLLRINLKEVPLADDIDLKSIAEKMDGYSGADITNVCRDASMMAMRRRIQGLRPEEIRHIPKEELNQPSTPADFLLALQKVSKSVGKEDLVKYMAWMEEFGSV
chain 2: MATKRAWKLQELVAHSSNVNCLALGPMSGRVMVTGGEDKKVNLWAVGKQNCIISLSGHTSPVDSVKFNSSEELVVAGSQSGTMKIYDLEPAKIVRTLTGHRNSIRCMDFHPFGEFVASGSTDTNVKLWDVRRKGCIYTYKGHSDQVNMIKFSPDGKWLVTASEDTTIKLWDLTMGKLFQEFKNHTGGVTGIEFHPNEFLLASGSSDRTVQFWDLETFQLVSSTSPGASAVRSISFHPDGSYLFCSSQDMLHAFGWEPIRCFDTFSVFWGKVADTVIASTQLIGASFNATNVSVYVADLSRMSTTGIAQEPQSQPSKTPSGGAEEVPSKPLTASGRKNFVRERPHTTSSKQRQPDVKSEPERQSPTQDEGVKDDDATDIKDPDSYAKIFSPKTRVDHSPERNAQPFPAPLDVPGAQEPEPFKHPPKPAAAAAVAPVSRAPAPSASDWQPAQANPAPNRVPAATKPVPAQEVAPSRKPDPISTIIPSDRNKPANLDMDAFLPPAHAQQAPRVNAPASRKQSDSERIEGLRKGHDSMCQVLSSRHRNLDVVRAIWTAGDAKTSVESVVNMKDQAILVDILNIMLLKKSLWNLDMCVVVLPRLKELLSSKYENYVHTSCACLKLILKNFTSLFNQNIKCPPSGIDITREERYNKCSKCYSYLIATRGYVEEKQHVSGKLGSSFRELHLLLDQLE
Consider B1, for which the “ATPase activity (ATP turnover), stimulation by microtubules” value is “this activity was stimulated ~10-fold by microtubules”; the “maximal microtubule-stimulated ATPase rate” value is given as “maximal microtubule-stimulated rate of 3 ATP/katanin/sec”; the “microtubule concentration at peak ATPase stimulation” value is “peak at ~2 uM tubulin”; the “microtubule severing, fluorescence microscopy assay” value is “Both p60 and p60/p80 severed microtubules in this assay”.

B2: baculovirus-expressed S. purpuratus katanin p60 subunit with N-terminal His(6) tag (protein)
chain: MSVDEICENTKMGREYALLGNYETSLVYYQGVLQQIQKLLTSVHEPQRKHQWQTIRQELSQEYEHVKNITKTLNGFKSEPAAPEPAPNHGRAAPFSHHQHAAKPAAAEPARDPDVWPPPTPVDHRPSPPYQRAARKDPPRRSEPSKPANRAPGNDRGGRGPSDRRGDARSGGGGRGGARGSDKDKNRGGKSDKDKKAPSGEEGDEKKFDPAGYDKDLVENLERDIVQRNPNVHWADIAGLTEAKRLLEEAVVLPLWMPDYFKGIRRPWKGVLMVGPPGTGKTMLAKAVATECGTTFFNVSSASLTSKYHGESEKLVRLLFEMARFYAPSTIFIDEIDSICSKRGTGSEHEASRRVKSELLIQMDGVSGPSAGEESSKMVMVLAATNFPWDIDEALRRRLEKRIYIPLPEIDGREQLLRINLKEVPLADDIDLKSIAEKMDGYSGADITNVCRDASMMAMRRRIQGLRPEEIRHIPKEELNQPSTPADFLLALQKVSKSVGKEDLVKYMAWMEEFGSV
For the protein B2, the “microtubule concentration at peak ATPase stimulation” value is reported as “peak at ~2 uM tubulin”; the “microtubule severing, fluorescence microscopy assay” value was “Both p60 and p60/p80 severed microtubules in this assay”; the “microtubule-stimulated ATPase activity” value is recorded as “p60 alone displayed a microtubule-stimulated ATPase activity”.
